In US7919577B2, “Adrenocorticotropic hormone analogs and related methods” (Colorado Seminary, priority 2004, dated 2011):

Tests used:
[1] = molecular target: T1, adrenal ACTH receptors such as MC-2R (explanted adrenal membrane) (Mus musculus, UniProt Q64326+Q9D159); assay: in vitro Serum-free Adrenal Competitive Binding Assay (Example 3); details: cold peptide at 10 nM, 100 nM, 1000 nM; CPM; FIG. 3
T1 construct: the adrenal halves were macerated or otherwise dissociated using Dounce Homogenizer to form a membrane fraction; from tissue; host or cells: mouse adrenal glands (explanted, homogenised to a membrane fraction)
T1 sequence (Q64326 whole entry): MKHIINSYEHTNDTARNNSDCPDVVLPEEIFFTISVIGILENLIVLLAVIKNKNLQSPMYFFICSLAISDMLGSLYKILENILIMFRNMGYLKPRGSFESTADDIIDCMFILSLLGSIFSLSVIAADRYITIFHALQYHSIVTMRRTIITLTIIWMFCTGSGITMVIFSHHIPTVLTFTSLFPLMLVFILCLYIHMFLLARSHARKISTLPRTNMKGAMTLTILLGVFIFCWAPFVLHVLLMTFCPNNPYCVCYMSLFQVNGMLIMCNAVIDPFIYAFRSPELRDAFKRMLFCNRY
T1 sequence (Q9D159 whole entry): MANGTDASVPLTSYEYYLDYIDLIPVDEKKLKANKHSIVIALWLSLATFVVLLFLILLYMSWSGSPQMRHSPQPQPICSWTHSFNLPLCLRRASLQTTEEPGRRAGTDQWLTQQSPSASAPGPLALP
Text: ACTH analog compounds that bind to adrenal membrane with a greater affinity than endogenous unmodified ACTH, and are able to displace unmodified ACTH can be identified using an in vitro Serum-free Adrenal Competitive Binding Assay (Example 3). […] A higher CPM level indicates the presence of greater amounts of the radiolabelled compound. […] Column 220 indicates the level of radio-labeled unmodified mACTH(1-24) detected after combining the explanted adrenal membrane with only the radio-labeled mACTH(1-24) for 2 hours (no competitive binding). Columns 230, 240, and 250 show the results of competitive binding assays for binding of non-radio-labeled (“cold”) mACTH(1-24) to displace the radio-labeled mACTH(1-24) from the explanted adrenal membrane (measured in column 220) by competitive binding to receptors such as MC-2R on the adrenal membrane. […]
ACTH analogs with the ability to bind adrenal receptors with a greater affinity than compounds with known adrenal binding activity (preferably ACTH) can also be identified by performing an in vitro Adrenal Competitive Binding Assay, whereby measurement of the reduction in the amount of the radiolabelled adrenal-binding compound (e.g., ACTH) is measured at various concentrations of non-radio-labeled ACTH analog test compound in a medium containing explanted adrenal membrane. […]

[2] = cited from earlier work
[3] = system: dexamethasone-suppressed male FVB/N mice; assay: in vivo Serum Corticosteroid Inhibition Assay (Example 2); parameters: species or system mouse; details: mACTH(1-24) alone 120 minutes after dexamethasone, blood one hour later
Description: The in vivo Serum Corticosteroid Inhibition Assay can include sequential administration of the test compound and the corticosteroid-producing compound by the following steps: first, an agent to suppress endogenous ACTH production was administered to a mouse subject, such as an intraperitoneal injection of dexamethasone; second, after waiting a suitable period of time for suppression of endogenous ACTH production (e.g., 1.5-2.0 hours), a test compound was administered to the mouse by a suitable method, such as intraperitoneal injection; third, after waiting a suitable period of time (e.g., 1 hour) for action of the test compound, a compound with corticosteroid-producing activity can be administered to the mouse by a suitable method, such as intraperitoneal injection; and fourth, after waiting a suitable period of time for the biological activity of both administered compounds to occur (e.g., 1 hour), a blood sample was taken from the subject and the level of serum corticosterone was determined by a suitable method, such as a competitive radioimmunoassay using ^125I RIA kit (ICN, Costa Mesa, Calif.). Optionally, steps two and three can be reversed (administering the corticosteroid-producing compound first, followed by administration of the test compound). The in vivo Serum Corticosteroid Inhibition Assay can also include co-administration of the test compound and the corticosteroid-producing compound by the following steps: first, an agent to suppress endogenous ACTH production was administered to a mouse subject, such as an intraperitoneal injection of dexamethasone; second, after waiting a suitable period of time for suppression of endogenous ACTH production (e.g., 1.5-2.0 hours), the corticosteroid-producing compound and a test compound were co-administered to the mouse by a suitable method, such as intraperitoneal injection; and third, after waiting a suitable period of time for the biological activity of both administered compounds to occur (e.g., 1 hour), a blood sample was taken from the subject and the level of serum corticosterone was determined by a suitable method, such as a competitive radioimmunoassay using ^125I RIA kit (ICN, Costa Mesa, Calif.). Also, in some embodiments, the first step in any in vivo Serum Corticosteroid Inhibition Assay can be replaced by a measurement of the initial endogenous corticosteroid or corticosteroid level in the blood of the subject in the manner of step four, instead of administering the agent to suppress ACTH production. Example 2 describes murine in vivo Serum Corticosteroid Inhibition Assays in detail.
A series of separate in vivo Serum Corticosteroid Inhibition Assays were performed to identify ACTH analogs that inhibit ACTH adrenal hormone production in vivo. The serum corticosterone levels of dexamethasone-suppressed mice were measured as described in Example 2 after administration of (1) ACTH (corticosteroid-producing compound), (2) an ACTH analog (test compound) followed by subsequent administration of ACTH, (3) a combination of ACTH and the ACTH analog and (4) the ACTH analog alone.
The in vivo Serum Corticosteroid Inhibition Assay was performed according the following method. The ACTH analog test compounds, such as those showing low activities in Example 1, were tested for their abilities to inhibit adrenal hormone production induced by unmodified ACTH.
First, two to three month-old male FVB/N mice from our colony, five per group, were injected intraperitoneally with dexamethasone (0.4 mg/0.1 ml PBS per mouse; Sigma, St. Louis, Mo.) to suppress their endogenous ACTH production.
Second, ninety to one hundred twenty minutes later, animals were injected subcutaneously between the shoulder blades with wild type ACTH and/or test ACTH analog peptides (1 μg/0.1 mL PBS/0.5% BSA) or with vehicle alone (0.1 mL PBS/0.5% BSA). […]

In the case of “N-Ser^1-Tyr-Ser-Met-Glu^5-His-Phe-Arg-Trp-Gly^10-Lys-Pro-Val-Gly-Lys^15-Lys-Arg-Arg-Pro-Val^20-Lys-Val-Tyr-Pro-Ac [mACTH(1-24), reference compound]”, the “displacement of radio-labeled mACTH(1-24) from explanted adrenal membrane” value [1] is given as “displacement of the radio-labeled mACTH(1-24)”, the “half life in blood” value [2] is given as “less than 20 minutes” and the “serum corticosterone at 180 minutes” value [3] is given as 500 ± 76 ng/mL. For the same substance, the “serum corticosterone at 180 minutes” value ([3]; listed as ACTH) was 500 ± 76 ng/mL.
